Reference: patent US9388243B2, “Method of target membrane protein depletion” (Samsung Electronics Co., Ltd., priority 2013, dated 2016)

Target: T1, EGFR in MKN45 stomach cancer cells (Homo sapiens, UniProt P00533)
T1 construct: endogenous in cells; host or cells: MKN45 (JCRB)
Test: Confocal microscopy of EGFR internalization and degradation in MKN45 cells
Type: cell-based
Details: MKN45, 5 μg/ml each, 4 hrs, confocal images (FIGS. 5-7)
Method: Each antibody was used at a density of 5 μg/ml/well, whether individually or in combination. For control, the cells were treated with PBS only. The cells were immobilized onto the plates by treatment with 4% (v/v) formaldehyde for 15 min, washed three times with PBS, and then blocked with a blocking buffer (0.5% triton x-100 and 5% donkey serum) at room temperature for 1 hr. […] The cells were washed again three times with PBS, and incubated at room temperature for 1 hr with 100 μl of a 1:2000 dilution of a secondary antibody (A21433, Invitrogen). After being washed three times with PBS, the cells were counterstained with a DAPI-containing mounting medium (H-1200, Vector Lab), and examined by Confocal microscopy (Zeiss, LSM710).
Comparison was made of degradation efficiency between the bispecific antibody and a combination of the monospecific antibodies.

- internalization into a cell and degradation of EGFR: induced by neither
B1: anti-EGFR ab: scFv-Fc antibody recognizing EGFR: SEQ ID NO: 109 and 111 variable domains fused to N-terminus of IgG2 Fc (antibody, V domains shown)
VH: QVQLVQSGAEVKKPGSSVKVSCKASGFTFTDYKIHWVRQAPGQGLEWMGYFNPNSGYSTYAQKFQGRVTITADKSTSTAYMELSSLRSEDTAVYYCARLSPGGYYVMDAWGQGTTVTVSS
VL: DIQMTQSPSSLSASVGDRVTITCRASQGINNYLNWYQQKPGKAPKRLIYNTNNLQTGVPSRFSGSGSGTEFTLTISSLQPEDFATYYCLQHNSFPTFGQGTKLEIKRT
modifications: IgG2 Fc without entry; linker; Synthetic (heavy-chain variable region of anti-EGFR antibody); Synthetic (light-chain variable region of anti-EGFR antibody)
- internalization into a cell and degradation of EGFR (listed as anti-EGFR antibody): did not provoke the degradation of EGFR at all
